What was measured:
[1] = target: 天然类风湿因子RF (natural rheumatoid factor; 北京霍尔姆斯(Holmes)生物技术有限公司, 货号HA129AN); assay: indirect ELISA, RF coated, ascites diluted 1:1562500
[2] = target: 天然类风湿因子RF (natural rheumatoid factor; 北京霍尔姆斯(Holmes)生物技术有限公司, 货号HA129AN); assay: indirect ELISA, RF coated, ascites diluted 1:2500
[3] = target: 天然类风湿因子RF (natural rheumatoid factor; 北京霍尔姆斯(Holmes)生物技术有限公司, 货号HA129AN); assay: indirect ELISA, RF coated, ascites diluted 1:12500
[4] = target: 类风湿因子RF in clinical false-positive serum samples 9233354 (RF1) and 9233353 (RF2); assay: cell-based or functional assay
[5] = target: 天然类风湿因子RF (natural rheumatoid factor; 北京霍尔姆斯(Holmes)生物技术有限公司, 货号HA129AN); assay: indirect ELISA, RF coated, ascites diluted 1:500
[6] = target: 天然类风湿因子RF (natural rheumatoid factor; 北京霍尔姆斯(Holmes)生物技术有限公司, 货号HA129AN); assay: indirect ELISA, RF coated, ascites diluted 1:312500
[7] = target: 天然类风湿因子RF (natural rheumatoid factor; 北京霍尔姆斯(Holmes)生物技术有限公司, 货号HA129AN); assay: indirect ELISA, RF coated, ascites diluted 1:62500
[8] = target: 天然类风湿因子RF (natural rheumatoid factor; 北京霍尔姆斯(Holmes)生物技术有限公司, 货号HA129AN); assay: indirect ELISA, RF coated, ascites diluted 1:100

B1: 单克隆抗体anti-blocker-MAB7 (A3-2) (antibody, V domains shown)
VH: VKLQQSGPGLVKPSQSLSLTCTVTGYSITSDYAWNWIRQFPGNKLEWMGYISYSGSTSYNPSLQSRISITRDTSKNQFFLQLNSVTTEDTATYYCARLANWVFDYWGQGTTLTVSS
VL: DIQMTQSPASLSVSVGETVTITCRASENIYSFLAWYQQKQGKSPQLLVYAATNLADGVPSRFSGSGSGTQYSLKINSLQYEDFGSYYCQHFRGTPYTFGGGTRL
ELISA read-out at ascites dilution 1562500 [1]: 0.195 | ELISA read-out at ascites dilution 2500 [2]: 1.52 | ELISA read-out at ascites dilution 12500 [3]: 1.17 | 干扰的影响降低 (免疫胶体金平台) [4]: 10 倍 | ELISA read-out at ascites dilution 500 [5]: 1.82 | ELISA read-out at ascites dilution 312500 [6]: 0.461 | ELISA read-out at ascites dilution 62500 [7]: 0.715 | ELISA read-out at ascites dilution 100 [8]: 2.01

From patent CN115746131A
